From paper PMC9780815

Target: GFP-BMB1 (Hibiscus green spot virus)
Assay: FRET or BRET

With BMB2-mRFP (natural protein) the FRET efficiency was 36% and the reduction of the GFP excited-state lifetime (FLIM) against the controls was 0.9 ns.
